# T1: hydroxymethylbilane synthase, transcript variant X3 (human, UniProt P08397 18-361)
# T1 construct: HuProt array protein, full-length recombinant from yeast; also called HMBS
# T1 sequence: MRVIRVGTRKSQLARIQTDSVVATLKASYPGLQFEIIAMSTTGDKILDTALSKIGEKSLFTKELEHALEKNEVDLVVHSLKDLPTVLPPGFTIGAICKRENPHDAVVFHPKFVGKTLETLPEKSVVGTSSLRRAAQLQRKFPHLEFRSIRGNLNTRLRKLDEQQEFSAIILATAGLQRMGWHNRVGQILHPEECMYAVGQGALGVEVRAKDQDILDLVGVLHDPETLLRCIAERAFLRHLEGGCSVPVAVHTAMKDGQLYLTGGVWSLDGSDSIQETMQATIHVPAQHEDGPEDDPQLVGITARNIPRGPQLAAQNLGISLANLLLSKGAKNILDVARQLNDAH
# T2: hook microtubule tethering protein 2, transcript variant 2 (human, UniProt Q96ED9 1-719)
# T2 construct: HuProt array protein, full-length recombinant from yeast; also called HOOK2
# T2 sequence: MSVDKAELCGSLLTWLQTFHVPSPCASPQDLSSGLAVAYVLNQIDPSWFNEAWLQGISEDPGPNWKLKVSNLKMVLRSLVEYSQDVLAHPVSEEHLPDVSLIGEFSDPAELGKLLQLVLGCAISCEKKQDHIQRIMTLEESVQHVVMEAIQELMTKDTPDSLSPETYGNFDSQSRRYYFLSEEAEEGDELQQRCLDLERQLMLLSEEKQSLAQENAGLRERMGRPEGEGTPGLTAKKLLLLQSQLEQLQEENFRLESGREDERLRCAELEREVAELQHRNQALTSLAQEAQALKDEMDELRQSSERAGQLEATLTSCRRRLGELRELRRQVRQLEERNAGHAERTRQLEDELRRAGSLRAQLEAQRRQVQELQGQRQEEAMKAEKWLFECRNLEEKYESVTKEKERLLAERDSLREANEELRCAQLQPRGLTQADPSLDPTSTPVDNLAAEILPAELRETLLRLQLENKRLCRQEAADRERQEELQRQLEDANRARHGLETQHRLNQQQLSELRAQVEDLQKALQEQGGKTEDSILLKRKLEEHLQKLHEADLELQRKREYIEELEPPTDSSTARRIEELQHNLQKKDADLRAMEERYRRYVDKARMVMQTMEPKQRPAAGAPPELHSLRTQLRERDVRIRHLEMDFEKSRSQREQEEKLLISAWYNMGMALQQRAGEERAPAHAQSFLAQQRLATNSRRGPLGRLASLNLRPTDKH
# T3: annexin A1 (human, UniProt P04083 2-346)
# T3 construct: HuProt array protein, full-length recombinant from yeast; printed 'annexin Al'; also called ANXA1
# T3 sequence: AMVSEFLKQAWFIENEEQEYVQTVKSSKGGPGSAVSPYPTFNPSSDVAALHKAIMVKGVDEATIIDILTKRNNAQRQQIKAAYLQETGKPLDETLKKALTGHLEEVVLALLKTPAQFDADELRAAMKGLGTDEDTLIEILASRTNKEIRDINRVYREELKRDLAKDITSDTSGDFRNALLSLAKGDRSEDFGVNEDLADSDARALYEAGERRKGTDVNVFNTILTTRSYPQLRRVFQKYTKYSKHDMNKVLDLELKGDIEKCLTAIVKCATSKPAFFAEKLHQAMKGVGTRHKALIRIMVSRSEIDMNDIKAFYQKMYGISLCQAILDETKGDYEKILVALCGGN
# T4: Ubiquilin 3 (human, UniProt Q9H347 1-655)
# T4 construct: HuProt array protein, full-length recombinant from yeast; also called UBQLN3
# T4 sequence: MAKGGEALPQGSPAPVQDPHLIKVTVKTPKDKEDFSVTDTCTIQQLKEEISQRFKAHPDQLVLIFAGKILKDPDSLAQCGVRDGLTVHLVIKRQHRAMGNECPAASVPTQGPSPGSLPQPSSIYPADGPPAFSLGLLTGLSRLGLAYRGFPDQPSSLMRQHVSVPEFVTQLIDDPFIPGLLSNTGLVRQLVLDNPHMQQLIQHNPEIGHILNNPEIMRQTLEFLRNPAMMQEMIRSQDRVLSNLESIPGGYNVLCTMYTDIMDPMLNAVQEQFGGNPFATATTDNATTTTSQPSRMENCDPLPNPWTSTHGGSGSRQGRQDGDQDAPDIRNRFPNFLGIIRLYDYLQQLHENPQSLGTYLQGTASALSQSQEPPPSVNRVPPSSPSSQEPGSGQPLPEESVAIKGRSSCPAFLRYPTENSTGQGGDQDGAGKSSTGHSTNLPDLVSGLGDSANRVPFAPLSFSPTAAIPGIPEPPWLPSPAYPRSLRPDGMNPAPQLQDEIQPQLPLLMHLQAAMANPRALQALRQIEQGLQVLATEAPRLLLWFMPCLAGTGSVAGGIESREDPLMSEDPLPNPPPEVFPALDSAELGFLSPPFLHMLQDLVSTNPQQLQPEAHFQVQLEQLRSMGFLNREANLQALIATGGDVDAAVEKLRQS
# T5: Killer cell lectin like receptor g2 (human, UniProt A4D1S0 1-409)
# T5 construct: HuProt array protein, full-length recombinant from yeast; also called KLRG2
# T5 sequence: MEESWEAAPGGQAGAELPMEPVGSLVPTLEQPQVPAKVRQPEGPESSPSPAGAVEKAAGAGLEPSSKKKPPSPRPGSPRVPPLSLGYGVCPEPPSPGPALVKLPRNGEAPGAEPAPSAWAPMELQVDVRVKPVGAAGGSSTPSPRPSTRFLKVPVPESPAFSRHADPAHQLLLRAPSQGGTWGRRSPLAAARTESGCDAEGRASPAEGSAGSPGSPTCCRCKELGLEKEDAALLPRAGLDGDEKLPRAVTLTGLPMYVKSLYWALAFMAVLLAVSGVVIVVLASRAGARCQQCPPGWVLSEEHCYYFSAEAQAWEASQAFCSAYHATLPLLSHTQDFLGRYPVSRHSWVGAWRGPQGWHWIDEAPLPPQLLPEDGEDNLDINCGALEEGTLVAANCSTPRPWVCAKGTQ
# T6: tripartite motif containing 35, transcript variant 1 (human, UniProt Q9UPQ4 1-493)
# T6 construct: HuProt array protein, full-length recombinant from yeast; also called TRIM35
# T6 sequence: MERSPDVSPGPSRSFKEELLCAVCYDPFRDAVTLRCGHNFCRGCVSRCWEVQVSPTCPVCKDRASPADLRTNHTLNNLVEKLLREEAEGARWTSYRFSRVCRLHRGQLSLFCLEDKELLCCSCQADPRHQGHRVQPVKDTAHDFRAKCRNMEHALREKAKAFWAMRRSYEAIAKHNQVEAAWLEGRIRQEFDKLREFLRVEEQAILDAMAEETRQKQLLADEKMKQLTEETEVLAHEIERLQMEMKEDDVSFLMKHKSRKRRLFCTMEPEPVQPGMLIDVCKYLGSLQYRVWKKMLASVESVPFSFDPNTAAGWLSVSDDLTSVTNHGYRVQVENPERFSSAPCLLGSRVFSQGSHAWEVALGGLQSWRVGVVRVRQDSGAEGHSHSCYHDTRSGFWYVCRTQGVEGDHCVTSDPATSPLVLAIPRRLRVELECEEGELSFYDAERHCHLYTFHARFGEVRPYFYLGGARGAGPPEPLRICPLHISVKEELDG
# T7: family with sequence similarity 177 member A1, transcript variant 2 (human, UniProt Q8N128 1-213)
# T7 construct: HuProt array protein, full-length recombinant from yeast; also called FAM177A1
# T7 sequence: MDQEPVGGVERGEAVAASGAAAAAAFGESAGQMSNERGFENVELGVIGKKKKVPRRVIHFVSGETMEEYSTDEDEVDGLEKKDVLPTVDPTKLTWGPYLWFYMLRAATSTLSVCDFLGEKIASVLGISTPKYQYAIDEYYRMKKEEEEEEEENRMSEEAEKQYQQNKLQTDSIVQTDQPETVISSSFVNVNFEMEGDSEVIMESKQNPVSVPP
# How the values were obtained:
# [1] = target: T1, hydroxymethylbilane synthase, …
# [2] = target: T2, hook microtubule tethering protein 2, …
# annexin A1 = target: T3, annexin A1
# [3] = target: T8, ubiquilin 1, transcript variant 2 (human, UniProt Q9UMX0 2-589)
# T8 construct: HuProt array protein, full-length recombinant from yeast; also called UBQLN1
# ubiquilin 2 = target: T9, ubiquilin 2 (human, UniProt Q9UHD9 2-624)
# T9 construct: HuProt array protein, full-length recombinant from yeast; also called UBQLN2
# Ubiquilin 3 = target: T4, Ubiquilin 3
# [4] = target: T10, methyltransferase like 21C (human, UniProt Q5VZV1 1-264)
# T10 construct: HuProt array protein, full-length recombinant from yeast; also called METTL21C
# [5] = target: T5, Killer cell lectin like receptor g2
# [6] = target: T6, tripartite motif containing 35, …
# FMR1 autosomal homolog 2 = target: T11, FMR1 autosomal homolog 2 (human, UniProt P51116 1-673)
# T11 construct: HuProt array protein, full-length recombinant from yeast; also called FXR2
# [7] = target: T12, RAN binding protein 10, transcript variant 1 (human, UniProt Q6VN20 2-620)
# T12 construct: HuProt array protein, full-length recombinant from yeast; also called RANBP10
# [8] = target: T7, family with sequence similarity 177 …
# T11 sequence (P51116 whole entry Q252H): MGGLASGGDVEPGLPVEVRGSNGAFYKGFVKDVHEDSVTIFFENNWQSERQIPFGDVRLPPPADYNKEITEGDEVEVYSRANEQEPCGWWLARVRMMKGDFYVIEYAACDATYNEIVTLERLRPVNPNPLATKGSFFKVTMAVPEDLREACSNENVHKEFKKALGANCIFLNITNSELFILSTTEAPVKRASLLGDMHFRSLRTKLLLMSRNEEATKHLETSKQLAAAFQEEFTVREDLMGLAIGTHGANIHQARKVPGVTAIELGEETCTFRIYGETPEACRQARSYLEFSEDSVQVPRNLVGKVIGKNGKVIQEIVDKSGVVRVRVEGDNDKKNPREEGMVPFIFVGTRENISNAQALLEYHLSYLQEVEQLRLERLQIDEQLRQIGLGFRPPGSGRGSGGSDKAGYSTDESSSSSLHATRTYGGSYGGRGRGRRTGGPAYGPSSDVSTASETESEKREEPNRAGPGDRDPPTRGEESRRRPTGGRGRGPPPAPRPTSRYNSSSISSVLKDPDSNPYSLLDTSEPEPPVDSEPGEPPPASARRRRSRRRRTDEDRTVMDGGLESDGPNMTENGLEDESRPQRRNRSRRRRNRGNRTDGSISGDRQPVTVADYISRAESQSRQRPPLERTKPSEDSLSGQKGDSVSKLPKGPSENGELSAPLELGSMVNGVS
# T12 sequence (Q6VN20 2-620 limits assumed, change not shown): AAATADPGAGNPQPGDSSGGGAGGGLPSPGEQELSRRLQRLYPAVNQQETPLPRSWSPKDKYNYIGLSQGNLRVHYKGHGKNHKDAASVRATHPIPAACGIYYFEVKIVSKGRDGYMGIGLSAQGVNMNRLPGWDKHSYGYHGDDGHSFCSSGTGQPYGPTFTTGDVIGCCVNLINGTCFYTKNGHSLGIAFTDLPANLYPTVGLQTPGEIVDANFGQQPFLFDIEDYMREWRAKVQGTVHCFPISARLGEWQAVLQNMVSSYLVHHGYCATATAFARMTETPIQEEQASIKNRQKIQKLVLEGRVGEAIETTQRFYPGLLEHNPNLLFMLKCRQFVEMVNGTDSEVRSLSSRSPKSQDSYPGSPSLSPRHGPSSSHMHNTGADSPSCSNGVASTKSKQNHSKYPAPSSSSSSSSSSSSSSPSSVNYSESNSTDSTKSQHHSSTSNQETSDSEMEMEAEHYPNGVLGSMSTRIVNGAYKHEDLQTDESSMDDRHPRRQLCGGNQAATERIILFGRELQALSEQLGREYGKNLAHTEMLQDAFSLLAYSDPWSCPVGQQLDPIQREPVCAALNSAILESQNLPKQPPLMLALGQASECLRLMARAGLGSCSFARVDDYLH
# T9 sequence (Q9UHD9 2-624 limits assumed): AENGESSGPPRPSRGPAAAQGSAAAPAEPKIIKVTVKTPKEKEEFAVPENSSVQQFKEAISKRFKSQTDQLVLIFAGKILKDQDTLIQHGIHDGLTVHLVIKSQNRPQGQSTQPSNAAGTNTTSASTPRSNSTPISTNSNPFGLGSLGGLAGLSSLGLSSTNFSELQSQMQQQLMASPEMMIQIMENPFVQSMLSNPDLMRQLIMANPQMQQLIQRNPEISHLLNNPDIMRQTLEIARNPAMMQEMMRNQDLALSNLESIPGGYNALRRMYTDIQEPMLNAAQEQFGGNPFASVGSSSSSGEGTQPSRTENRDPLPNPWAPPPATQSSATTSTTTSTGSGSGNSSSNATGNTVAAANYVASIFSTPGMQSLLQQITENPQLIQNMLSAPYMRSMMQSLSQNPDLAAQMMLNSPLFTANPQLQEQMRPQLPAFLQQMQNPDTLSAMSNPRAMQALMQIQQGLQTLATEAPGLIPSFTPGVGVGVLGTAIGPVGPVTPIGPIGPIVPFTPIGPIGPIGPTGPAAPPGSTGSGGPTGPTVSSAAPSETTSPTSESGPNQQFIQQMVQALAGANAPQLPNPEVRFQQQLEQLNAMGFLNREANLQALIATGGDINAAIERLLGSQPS
# T10 sequence (Q5VZV1 whole entry): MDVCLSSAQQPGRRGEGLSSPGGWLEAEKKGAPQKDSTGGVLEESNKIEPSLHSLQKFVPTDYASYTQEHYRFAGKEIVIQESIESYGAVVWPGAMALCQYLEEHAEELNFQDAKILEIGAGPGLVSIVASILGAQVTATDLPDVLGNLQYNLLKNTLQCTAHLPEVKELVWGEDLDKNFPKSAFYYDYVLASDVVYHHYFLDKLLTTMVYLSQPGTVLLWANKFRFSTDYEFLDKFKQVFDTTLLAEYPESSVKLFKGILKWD
# T8 sequence (Q9UMX0 other isoform, or with tags, fused parts or gaps mutant limits assumed): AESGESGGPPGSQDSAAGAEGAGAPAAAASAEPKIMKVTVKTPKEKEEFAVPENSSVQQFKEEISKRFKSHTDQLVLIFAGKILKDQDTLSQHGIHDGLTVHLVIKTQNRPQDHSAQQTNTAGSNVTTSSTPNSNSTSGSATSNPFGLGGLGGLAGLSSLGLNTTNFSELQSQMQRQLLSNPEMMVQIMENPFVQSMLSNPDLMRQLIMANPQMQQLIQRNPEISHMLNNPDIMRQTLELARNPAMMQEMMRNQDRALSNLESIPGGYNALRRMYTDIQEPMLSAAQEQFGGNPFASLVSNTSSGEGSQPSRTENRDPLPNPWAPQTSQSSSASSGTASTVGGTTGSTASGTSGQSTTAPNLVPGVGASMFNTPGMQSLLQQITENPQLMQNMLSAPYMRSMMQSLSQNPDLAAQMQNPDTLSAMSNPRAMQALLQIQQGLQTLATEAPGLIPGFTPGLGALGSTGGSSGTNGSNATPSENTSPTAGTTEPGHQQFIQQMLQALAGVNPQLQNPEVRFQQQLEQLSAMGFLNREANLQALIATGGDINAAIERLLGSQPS
binder,measurement,setting,value
"TLUS1006 (antibody, V domains shown, detected with anti-human IgG Fc) VH: PVHLVQSGAEVRKPGSSVKVSCMASGGSFNTYAVNWVRQAPGQGLEWMGGIIPVFGTTNYAPRFQGRVTITADESTSTVYMELTSLTSEDTAVYYCARDRDSGYERNCLDPWGQGTLVTVSS VL: DIVMTQSPDSLAVTLGERATINCRSSQTVLYDSNNKNYLAWYQQKPGQPPKLLIYWASIRESGVPDRFSGSGSGTDFTLTINTLQAEDVAIYFCQQYFTTPRTFGQGTKVEIKR",binding result,[1],binds
same,binding result,[2],binds
"TLUA1004 (antibody, V domains shown, detected with anti-human IgG Fc) VH: EVQLVESGGGLVQTGGSLRLSCSASGFTFNNYWMHWVRQAPGKGLLWLSRINTDGSRGHYDDSVQGRFTISRDNAKQTVYLQMDGLRAEDTAVYFCARDGYDFRAFDHWGQGVLVTVSS VL: DIQMTQSPSSLSASVGDKVTMTCRASQFISVYVNWYQQKPGKAPKLLIYTASSLESGVSSRFSGGGSGTDFTLTIRSLQPEDFAIYYCQQTYSTPWTFGPGTRVEIKR",binding result,annexin A1,binds
"TMEL1018 (antibody, V domains shown, detected with anti-human IgG Fc) VH: PLQLQESGPGLVKPSETLSLTCTVSGGSISSSSYYWGWIRQPPGKGLEWIGSIYYSGSTYYNPSLKSRVTISVDTSKNQFSLKLSSVTAADTAVYSCARLLVGGAFDIWGQGTMVTVSS VL: not shown",binding result,[3],binds
same,binding result,ubiquilin 2,binds
same,binding result,Ubiquilin 3,binds
"TLUS1003 (antibody, V domains shown, detected with anti-human IgG Fc) VH: QVHLVQSGSEFKKPGASVKISCKTSGYTFTNYAMNWVRQAPGQGLEWVGWINTVTGIPGYAQGFTGRFIISLDTSGRTSYLQINSLQAEDTAVYYCARSGGFGWSRDLDYWGQGTLVTVSS VL: DIVLTQSPLSLPVTPGEPASISCRSSQSLLHSNGVYYLDWYLLKPGQSPQLVIYMGSSRASGVPDRFSGSGSGTDFRLKISRVEAEDVGIYYCMQALQTPWTFGQGTKVEIKR",binding result,[4],binds
"TLUA1001 (antibody, V domains shown, detected with anti-human IgG Fc) VH: PLQLQESGPGLVKPSETLSLTCSVSGGSIRSSAPFWGWIRQPPGKGLEWIGNIYYNGDTSYSPSLENRVTLFVDTSKNQFSLNLTSVTAADTAVYYCGRIMTPSIDLWGQGKLVTVSS VL: EIVLTQSPGTLSLSPGERATLSCRASQSISSTYLVWYQQKPGQAPRLLIYAASYRATGIPDRFSGSGSGTDFILTISRLEPEDFAVYYCQQYGSSLTFGGGTKVEIKR",binding result,[5],binds
same,binding result,[6],binds
same,binding result,FMR1 autosomal homolog 2,binds
"TMEL1017 (antibody, V domains shown, detected with anti-human IgG Fc) VH: EVQLVESGGGLVKPGGSLRLSCAASGFTFSNYNMNWVRQAPGKGLEWVSSISSSSSYIYYADSVKGRFTISRDNAKNSLYLQMNSLRAEDTAVYYCARDALDFDWLLSAGGFDYWGQGTLVTVSS VL: ASALTQPASVSGSPGQSITISCTGTSSDVGGYNYVSWYQQHPGKAPKLMIYEVSNRPSGVSNRFSGSKSGNTASLTISGLQAEDEADYYCSSYTSSSTLVFGGGTKLTVLG",binding result,[7],binds
"TLUA1016 (antibody, V domains shown, detected with anti-human IgG Fc) VH: EVQLLESGGALVQPGGSLRLSCAVSGLTFNRFAMTWVRQAPGKGLEWVSHIGGSGGYTYYADSVKGRFTISRDNSKNTLYLQMNSLRAEDTAVYHCVKLKGIGAMWTYAMDVWGQGTTVTVSS VL: QSVLTQPPSVSGAPGQRVTIPCTGSSSNLGAGYAVHWYQQLPATTPKLLIYANSSRPSGVPDRFSGSRSDTSASLAITGLQAEDEADYYCQSYDSSLSGYVFGTGTWVTVLS",binding result,[8],binds
